The numbers were not newly measured in article PMC7168109, which cites them from elsewhere.

One may read the Kd as the free concentration of one partner at which half of the binding sites on the other are occupied at equilibrium, for simple one-to-one binding.

The data set addresses T1, PTK7 (tyrosine protein kinase 7, CCK4) on CCRF-CEM or Jurkat cells (UniProt Q13308).
T1 sequence: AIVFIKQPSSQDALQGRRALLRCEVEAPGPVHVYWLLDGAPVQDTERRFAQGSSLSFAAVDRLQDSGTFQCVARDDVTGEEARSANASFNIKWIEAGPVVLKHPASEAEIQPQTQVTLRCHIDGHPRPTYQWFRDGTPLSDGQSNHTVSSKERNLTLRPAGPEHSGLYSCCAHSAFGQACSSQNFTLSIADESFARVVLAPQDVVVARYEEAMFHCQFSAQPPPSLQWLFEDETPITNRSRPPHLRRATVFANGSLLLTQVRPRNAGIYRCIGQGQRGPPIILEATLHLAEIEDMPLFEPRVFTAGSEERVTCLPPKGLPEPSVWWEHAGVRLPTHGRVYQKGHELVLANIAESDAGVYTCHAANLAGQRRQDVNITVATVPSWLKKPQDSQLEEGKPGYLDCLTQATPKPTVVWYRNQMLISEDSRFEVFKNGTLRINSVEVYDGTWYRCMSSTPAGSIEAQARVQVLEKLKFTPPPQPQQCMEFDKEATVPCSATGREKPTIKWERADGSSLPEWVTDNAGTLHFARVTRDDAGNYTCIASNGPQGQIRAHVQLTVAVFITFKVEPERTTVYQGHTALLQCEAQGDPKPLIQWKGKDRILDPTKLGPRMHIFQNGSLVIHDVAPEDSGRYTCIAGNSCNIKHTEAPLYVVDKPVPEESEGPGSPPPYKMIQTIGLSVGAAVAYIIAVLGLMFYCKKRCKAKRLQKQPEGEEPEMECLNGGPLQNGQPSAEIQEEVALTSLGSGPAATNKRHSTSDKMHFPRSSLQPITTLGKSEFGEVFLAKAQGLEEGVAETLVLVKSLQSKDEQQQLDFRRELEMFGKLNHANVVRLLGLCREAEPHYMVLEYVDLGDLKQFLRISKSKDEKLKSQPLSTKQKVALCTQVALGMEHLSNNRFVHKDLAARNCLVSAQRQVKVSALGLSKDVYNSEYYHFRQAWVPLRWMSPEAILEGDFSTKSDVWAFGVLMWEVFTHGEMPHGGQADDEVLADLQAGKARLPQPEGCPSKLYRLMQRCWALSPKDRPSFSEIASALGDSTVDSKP
Description: cited, method not stated. The settings on record: Flow cytometry on whole cells: 200 nM aptamer, 4 °C, 30 min in the dark, cells washed with PBS before incubation, three washes after; binding buffer and pH not …. Background: Flow cytometry measures light scatter and fluorescence of single cells or particles in a stream.

In the case of Sgc8 (as cited), the Kd is 800 pM.
